From patent publication US6921641

Columns and labels:
[1] = target: T1, Escherichia coli UvrB protein
T1 chain: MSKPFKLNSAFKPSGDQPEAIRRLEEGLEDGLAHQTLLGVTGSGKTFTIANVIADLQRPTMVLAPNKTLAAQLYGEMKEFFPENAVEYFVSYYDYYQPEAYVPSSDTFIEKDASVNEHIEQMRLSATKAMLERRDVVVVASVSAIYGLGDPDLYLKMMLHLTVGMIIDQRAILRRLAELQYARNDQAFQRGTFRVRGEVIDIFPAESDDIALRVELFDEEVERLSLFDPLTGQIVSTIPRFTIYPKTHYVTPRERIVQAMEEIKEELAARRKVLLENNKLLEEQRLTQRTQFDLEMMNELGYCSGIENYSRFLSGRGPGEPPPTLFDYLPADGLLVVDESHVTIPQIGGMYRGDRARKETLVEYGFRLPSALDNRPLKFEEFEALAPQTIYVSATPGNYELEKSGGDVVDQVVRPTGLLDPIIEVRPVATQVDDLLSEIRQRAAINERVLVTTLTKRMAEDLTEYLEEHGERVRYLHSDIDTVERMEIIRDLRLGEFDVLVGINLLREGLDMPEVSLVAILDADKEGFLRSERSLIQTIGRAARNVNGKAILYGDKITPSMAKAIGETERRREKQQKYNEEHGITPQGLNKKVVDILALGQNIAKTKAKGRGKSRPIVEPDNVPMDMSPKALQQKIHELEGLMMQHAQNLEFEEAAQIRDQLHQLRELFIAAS

[2] = target: T2, Bacillus caldotenax (Bca) UvrA protein
T2 chain: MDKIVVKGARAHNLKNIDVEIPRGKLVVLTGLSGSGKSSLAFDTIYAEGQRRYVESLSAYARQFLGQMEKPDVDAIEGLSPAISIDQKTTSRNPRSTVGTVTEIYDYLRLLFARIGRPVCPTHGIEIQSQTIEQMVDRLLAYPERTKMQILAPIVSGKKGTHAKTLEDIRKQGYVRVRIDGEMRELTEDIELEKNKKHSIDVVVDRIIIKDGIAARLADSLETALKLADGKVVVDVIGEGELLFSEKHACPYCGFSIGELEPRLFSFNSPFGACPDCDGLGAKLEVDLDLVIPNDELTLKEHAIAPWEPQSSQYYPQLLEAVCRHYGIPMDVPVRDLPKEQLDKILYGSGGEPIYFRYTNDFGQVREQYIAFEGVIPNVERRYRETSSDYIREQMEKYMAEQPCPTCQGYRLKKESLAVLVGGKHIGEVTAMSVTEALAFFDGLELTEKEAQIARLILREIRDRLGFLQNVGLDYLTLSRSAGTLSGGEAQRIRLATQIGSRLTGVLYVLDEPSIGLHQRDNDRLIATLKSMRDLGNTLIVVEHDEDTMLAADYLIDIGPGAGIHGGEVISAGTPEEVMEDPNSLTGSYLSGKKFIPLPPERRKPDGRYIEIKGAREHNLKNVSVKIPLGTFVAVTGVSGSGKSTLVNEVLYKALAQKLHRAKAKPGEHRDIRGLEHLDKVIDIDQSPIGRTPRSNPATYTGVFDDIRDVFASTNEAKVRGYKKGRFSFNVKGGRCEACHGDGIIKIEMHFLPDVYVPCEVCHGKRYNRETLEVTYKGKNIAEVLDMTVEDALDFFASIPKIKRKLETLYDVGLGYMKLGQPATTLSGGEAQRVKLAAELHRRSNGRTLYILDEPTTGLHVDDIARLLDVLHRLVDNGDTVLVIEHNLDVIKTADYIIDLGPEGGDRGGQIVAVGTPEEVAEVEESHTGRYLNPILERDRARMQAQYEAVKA

B1: Bacillus caldotenax (Bca) UvrA protein (protein)
chain: MDKIVVKGARAHNLKNIDVEIPRGKLVVLTGLSGSGKSSLAFDTIYAEGQRRYVESLSAYARQFLGQMEKPDVDAIEGLSPAISIDQKTTSRNPRSTVGTVTEIYDYLRLLFARIGRPVCPTHGIEIQSQTIEQMVDRLLAYPERTKMQILAPIVSGKKGTHAKTLEDIRKQGYVRVRIDGEMRELTEDIELEKNKKHSIDVVVDRIIIKDGIAARLADSLETALKLADGKVVVDVIGEGELLFSEKHACPYCGFSIGELEPRLFSFNSPFGACPDCDGLGAKLEVDLDLVIPNDELTLKEHAIAPWEPQSSQYYPQLLEAVCRHYGIPMDVPVRDLPKEQLDKILYGSGGEPIYFRYTNDFGQVREQYIAFEGVIPNVERRYRETSSDYIREQMEKYMAEQPCPTCQGYRLKKESLAVLVGGKHIGEVTAMSVTEALAFFDGLELTEKEAQIARLILREIRDRLGFLQNVGLDYLTLSRSAGTLSGGEAQRIRLATQIGSRLTGVLYVLDEPSIGLHQRDNDRLIATLKSMRDLGNTLIVVEHDEDTMLAADYLIDIGPGAGIHGGEVISAGTPEEVMEDPNSLTGSYLSGKKFIPLPPERRKPDGRYIEIKGAREHNLKNVSVKIPLGTFVAVTGVSGSGKSTLVNEVLYKALAQKLHRAKAKPGEHRDIRGLEHLDKVIDIDQSPIGRTPRSNPATYTGVFDDIRDVFASTNEAKVRGYKKGRFSFNVKGGRCEACHGDGIIKIEMHFLPDVYVPCEVCHGKRYNRETLEVTYKGKNIAEVLDMTVEDALDFFASIPKIKRKLETLYDVGLGYMKLGQPATTLSGGEAQRVKLAAELHRRSNGRTLYILDEPTTGLHVDDIARLLDVLHRLVDNGDTVLVIEHNLDVIKTADYIIDLGPEGGDRGGQIVAVGTPEEVAEVEESHTGRYLNPILERDRARMQAQYEAVKA
- DNA substrate bound in the form of UvrB-DNA complex (gel mobility shift, Eco UvrB at 100 nM) [1]: more than 50% of the DNA substrate bound in the form of UvrB-DNA complex
- DNA substrate bound in the form of UvrB-DNA complex (gel mobility shift, Eco UvrB at 250 nM) [1]: all the BPDE-containing substrate is bound as the UvrB-DNA complex

B2: Bacillus caldotenax (Bca) UvrB protein, wild type (protein)
chain: VEGRFQLVAPYEPQGDQPQAIAKLVDGLRRGVKHQTLLGATGTGKTFTISNVIAQVNKPTLVIAHNKTLAGQLYSELKEFFPHNAVEYFVSYYDYYQPEAYVPQTDTYIEKDAKINDEIDKLRHSATSALFERRDVIIVASVSCIYGLGSPEEYRELVVSLRVGMEIERNALLRRLVDIQYDRNDIDFRRGTFRVRGDVVEIFPASRDEHCIRVEFFGDEIERIREVDALTGEVLGEREHVAIFPASHFVTREEKMRLAIQNIEQELEERLAELRAQGKLLEAQRLEQRTRYDLEMMREMGFCSGIENYSRHLALRPPGSTPYTLLDYFPDDFLIIVDESHVTLPQLRGMYNGDRARKQVLVDHGFRLPSALDNRPLTFEEFEQKINQIIYVSATPGPYELEHSPGVVEQIIRPTGLLDPTIDVRPTKGQIDDLIGEIRERVERNERTLVTTLTKKMAEDLTDYLKEAGIKVAYLHSEIKTLERIEIIRDLRLGKYDVLVGINLLREGLDIPEVSLVAILDADKEGFLRSERSLIQTIGRAARNANGHVIMYADTITKSMEIAIQETKRRRAIQEEYNRKHGIVPRTVKKEIRDVIRATYAAEETEMYEAKPAAAMTKQEREELIRTLEAEMKEAAKALDFERAAQLRDIIFELKAEG
- ATPase activity (UvrA + UvrB + UV-DNA) (mol of ATP hydrolyzed/mol of protein/min) [2]: 22
- ATPase activity (UvrA + UvrB) (mol of ATP hydrolyzed/mol of protein/min) [2]: 18.3

B3: β-hairpin deletion mutant of the B. caldotenax UvrB protein (Δβh UvrB) (protein)
chain: VEGRFQLVAPYEPQGDQPQAIAKLVDGLRRGVKHQTLLGATGTGKTFTISNVIAQVNKPTLVIAHNKTLAGQLYSELKEFFPHNAVEYFVSYYDYYGAKINDEIDKLRHSATSALFERRDVIIVASVSCIYGLGSPEEYRELVVSLRVGMEIERNALLRRLVDIQYDRNDIDFRRGTFRVRGDVVEIFPASRDEHCIRVEFFGDEIERIREVDALTGEVLGEREHVAIFPASHFVTREEKMRLAIQNIEQELEERLAELRAQGKLLEAQRLEQRTRYDLEMMREMGFCSGIENYSRHLALRPPGSTPYTLLDYFPDDFLIIVDESHVTLPQLRGMYNGDRARKQVLVDHGFRLPSALDNRPLTFEEFEQKINQIIYVSATPGPYELEHSPGVVEQIIRPTGLLDPTIDVRPTKGQIDDLIGEIRERVERNERTLVTTLTKKMAEDLTDYLKEAGIKVAYLHSEIKTLERIEIIRDLRLGKYDVLVGINLLREGLDIPEVSLVAILDADKEGFLRSERSLIQTIGRAARNANGHVIMYADTITKSMEIAIQETKRRRAIQEEYNRKHGIVPRTVKKEIRDVIRATYAAEETEMYEAKPAAAMTKQEREELIRTLEAEMKEAAKALDFERAAQLRDIIFELKAEG
- ATPase activity (UvrA + Δβh UvrB + UV-DNA) (mol of ATP hydrolyzed/mol of protein/min) [2]: 29
- ATPase activity (UvrA + Δβh UvrB) (mol of ATP hydrolyzed/mol of protein/min) [2]: 19
